From US20200054764A1, “MEDICAL USE OF ANTI-C MET ANTIBODY-CYTOTOXIC DRUG CONJUGATE” (priority 2016, published 2020) come the findings set out here.

The subject of data set [1] is MKN45 cells. The data set is described as follows: FACS binding to cell line MKN45, which highly expresses c-Met. On the set-up: species or system human. Particulars: flow cytometry, read-out: MKN45/FCAS Binding activity. Here is the method: A FACS method was used to detect the binding activity of c-Met humanized antibodies with the cell line MKN45, which highly expresses c-Met.
MKN45 cells (JCRB, Cat No.: JCRB0254) were resuspended in RPMI1640 medium (GIBCO, Cat No.: 11835-030) which contains 10% (v/v) fetal calf serum (FBS GIBCO, Cat No.: 10099-141) and Penicillin/Streptomycin (GIBCO, Cat No.: 15070-063) to reach 10,000,000 cells/mL. 2 mL of resuspended MKN45 cells was added to 96-well microtiter plate (Corning, Cat No.: 3799) at 150,000 cells/well, and 8 concentrations of c-Met antibody (5-fold gradient diluted, starting from 20 μg/mL) were added to the corresponding wells, and the final volume was 100 μL. The plate was incubated for 1 hour at 4° C. FACS buffer (PBS comprising 2.5% (v/v) FBS (Hyclone, Cat: SH30256.01B)) was added. The plate was centrifuged under 4° C. at 1300 rmp for 4 minutes, and the supernatant was discarded. This procedure was repeated three times. 100 μL of secondary antibodies (Fluorescence labeled goat-anti-mouse secondary antibodies with 1:200 dilution, Biolegend, Cat No. 405307; Fluorescence labeled anti-human secondary antibody with 1:30 dilution, Biolegend, Cat No. 409304) were added to each well, and the plate was incubated for 1 hour at 4° C. […] FACS buffer was added to resuspend the cells, and the prepared samples were detected by flow cytometry (BD FACS Array).
In general terms: Flow cytometry measures light scatter and fluorescence of single cells or particles in a stream.

Data set [2] deals with MKN45 cells expressing c-Met. Briefly: Endocytosis of anti c-Met antibody in MKN45 cells (FACS). Particulars: MKN45, 10 μg/mL antibody. Format: cell-based, human. The source says:
Antibodies of the invention bind to human c-Met, and have very good in vitro activity and good activity in inhibiting tumor activity in vivo. […] In order to detect whether the antibodies would be internalized into the cell along with human c-Met once bound to human c-Met, human gastric cancer cell line MKN45 (JCRB, Cat No.: JCRB0254) expressing c-Met was used for evaluation.
MKN45 cells were resuspended to 10,000,000 cells/mL in RPMI 1640 medium (GIBCO, Cat No.: 11835-030), which contains 10% (v/v) FBS (GIBCO, Cat No.: 10099-141) and penicillin/streptomycin (GIBCO, Cat No.: 15070-063). 2 mL resuspended MKN45 cells were added to a 96-well microtiter plate with 250,000 cells/well, and 10 μg/mL of c-Met antibody was added to the corresponding wells and the final volume was 100 μL. The plate was incubated at 4° C. for 1 hour. FACS buffer (phosphate buffer solution including 2.5% fetal bovine serum; Hyclone, Cat: SH30256.01B) was added and the plate was centrifuged at 4° C., 1300 rpm for 4 minutes. The supernatant was discarded and this procedure was repeated three times. 100 μL secondary antibody solution (Fluorescence labeled goat anti mouse secondary antibodies at 1:200 dilution, Biolegend, Cat #405307; Fluorescence labeled anti-human secondary antibody at 1:30 dilution, Biolegend, Cat #409304) was added into each well. The plate was incubated at 4° C. for 1 hour. FACS buffer was added and the plate was centrifuged at 4° C., 1300 rpm for 4 minutes. The supernatant was discarded and this procedure was repeated three times. Complete cell culture medium (RPMI 1640 medium with 10% FBS) was added and was incubated at 37° C. in 5% CO2 for 0, 0.5, 1, 2, 4 hours. 5 μL 7-AAD (Biolegend, Cat:420403) was added to 100 μL FACS buffer which was added to each well, and the plate was incubated at 4° C. for 30 minutes. FACS buffer was added and the plate was centrifuged at 4° C., 1300 rpm for 4 minutes. The supernatant was discarded and this procedure was repeated three times. 200 μL Stripping buffer (0.05 M glycine, pH 3.0; 0.1 M NaCl, mixed at 1:1 (v/v)) was added to each well. The cells were resuspended and were incubated for 7 minutes at room temperature. The cells were centrifuged at room temperature at 1300 rpm for 4 minutes, and the supernatant was discarded. 200 μL neutralizing wash buffer (0.15M trihydroxymethyl aminomethane, pH 7.4) was added to each well, the cells were resuspended and centrifuged at room temperature at 1300 rpm for 4 minutes, and the supernatant was discarded. 200 μL FACS buffer was added and the cells were resuspended. The prepared samples were detected by flow cytometry (BD FACS Calibur).
Endocytosis of c-Met antibody %=(intensity of fluorescence at each time point−mean intensity of fluorescence at time 0)/mean intensity of fluorescence at time 0.

Data set [3] in a line: Biophysical stability: deamination by LC-MS. Format: physicochemical. Particulars: 4° C., 3.5 months. Here is the method:
To evaluate the biophysical stability of the anti c-Met antibodies of the invention, such as the presence of glycosylation and deamination sites and stability, LC-MS analysis was used.
The molecular weight of the heavy and light chains was directly detected by LC-MS to analyze glycosylation. Deamination was analyzed by LC-MS at 4° C. for long time (at least 3 months), or at 40° C. for 21 days under an accelerated condition. Samples treated with different conditions were diluted to 2 mg/mL with pH 7.2 Tris-HCl; final concentrations of 10 mM of TCEP and 6M of urea (AMRESCO, Cat #0378)3 were added, then the samples were incubated for 20 minutes at 37° C. IAA (Sigma-Aldrich, Cat # I1149) with a final concentration of 20 mM was added and was incubated for 15 minutes in darkness to protect the sulfhydryl group. The pH of the sample was adjusted by dilution with Tris-HCl, pH 7.2, and protease (Sigma-Aldrich, Cat # T6567) was added at a ratio by weight of 10:1 (protein: enzyme). The samples were incubated at 37° C. for 25 minutes, and then formic acid with a final concentration of 0.1% (Fluca, Cat #94318) was added to terminate the reactions. Samples were centrifuged and analyzed by LC-MS.
BiopharmaLynx was used to analyze the presence of deamination. […] Peak area was obtained by integration, and the percentages of deamination and oxidation product were calculated.

B1: Ab-9 (antibody)
heavy: QVTLKESGPVLVKPTETLTLTCTVSGFSLPNYGVHWVRQPPGKALEWLAVIWSGGSTNYAAAFVSRLRISKDTSKSQVVFTMNNMDPVDTATYYCARNHDNPYNYAMDYWGQGTTVTVSSASTKGPSVFPLAPCSRSTSESTAALGCLVKDYFPEPVTVSWNSGALTSGVHTFPAVLQSSGLYSLSSVVTVPSSNFGTQTYTCNVDHKPSNTKVDKTVERKCCVECPPCPAPPVAGPSVFLFPPKPKDTLMISRTPEVTCVVVDVSHEDPEVQFNWYVDGVEVHNAKTKPREEQFNSTFRVVSVLTVVHQDWLNGKEYKCKVSNKGLPAPIEKTISKTKGQPREPQVYTLPPSREEMTKNQVSLTCLVKGFYPSDIAVEWESNGQPENNYKTTPPMLDSDGSFFLYSKLTVDKSRWQQGNVFSCSVMHEALHNHYTQKSLSLSPGK
light: DIVLTQSPASLAVSPGQRATITCRANKSVSTSTYNYLHWYQQKPGQPPKLLIYLASNLASGVPARFSGSGSGTDFTLTINPVEANDTANYYCQHSRDLPPTFGQGTKLEIKRTVAAPSVFIFPPSDEQLKSGTASVVCLLNNFYPREAKVQWKVDNALQSGNSQESVTEQDSKDSTYSLSSTLTLSKADYEKHKVYACEVTHQGLSSPVTKSFNRGEC
B1: the EC50 in data set [1] amounted to 1.6 nM. The endocytosis % is given as 0% in data set [2] (0 h); 26% in data set [2] (0.5 h); 32% in data set [2] (1 h); 32% in data set [2] (2 h); 31% in data set [2] (4 h). Also, the “Analysis of deamination: percentage of deaminated molecules” value in data set [3] is 0.66%.
